Measurements published in patent US20250145714A1 (GENUV, published 2025).

Legend:
[1] = molecular target: IL-2Rα-His (Acrobiosystems) (UniProt P01589); test: ELISA on plate-coated IL-2Rα-His, OD450 against antibody concentration (M)
[2] = molecular target: IL-2Rβγ-His (Acrobiosystems) (UniProt P14784); test: ELISA on plate-coated IL-2Rβγ-His, OD450 against antibody concentration (M)
[3] = molecular target: T1, Human PD-1 (Acrobiosystems, Cat #PD1-H5221) (human, UniProt Q15116 25-167); test: SPR Biacore 8K, human PD-1 amine-coupled on CM5, 1:1 model, pH 7.4
T1 construct: Bought protein, immobilised on a CM5 chip; also called hPD-1
T1 sequence (Q15116 25-167 limits assumed): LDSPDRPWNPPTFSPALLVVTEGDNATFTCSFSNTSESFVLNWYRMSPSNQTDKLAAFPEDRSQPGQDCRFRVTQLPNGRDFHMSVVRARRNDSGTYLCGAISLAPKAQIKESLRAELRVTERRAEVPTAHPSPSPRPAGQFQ
Method: (§1) Human PD-1 (Acrobiosystems, Cat #PD1-H5221) at a concentration of 1 μg/ml was immobilized on a CM5 chip (Cytiva) using an amine coupling kit (Cytiva) according to the manufacturer's instructions. […] After each experiment in each concentration cycle, the chip was regenerated with glycine at pH 1.5. At this time, the running buffer used was a pH 7.4 or pH 6.0 HBS-EP+ buffer (0.1 M HEPES, 1.5 M NaCl, 0.03 M EDTA and 0.5% v/v Surfactant P20), and the experimental proteins were diluted in the running buffer.
(§2) The analysis was performed using the 1:1 binding model in Biacore evaluation software version 3.0, and the results of the kinetic constants (ka and kd) and affinity (KD) values are shown in Table 3 below.

[4] = molecular target: T1, Human PD-1 (Acrobiosystems, Cat …); test: SPR Biacore 8K, human PD-1 amine-coupled on CM5, 1:1 model, pH 6.0
Method: as §1, §2

Sequence of IL-2Rβγ-His (Acrobiosystems) (P14784 27-239 limits assumed, chain 1 of 2): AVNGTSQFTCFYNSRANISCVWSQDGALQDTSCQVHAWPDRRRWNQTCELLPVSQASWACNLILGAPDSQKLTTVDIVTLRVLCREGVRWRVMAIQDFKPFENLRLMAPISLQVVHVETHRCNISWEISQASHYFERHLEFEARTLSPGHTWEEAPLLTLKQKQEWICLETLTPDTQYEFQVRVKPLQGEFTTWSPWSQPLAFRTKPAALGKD
Sequence of IL-2Rβγ-His (Acrobiosystems) (P31785 23-262 limits assumed, chain 2 of 2, further chain): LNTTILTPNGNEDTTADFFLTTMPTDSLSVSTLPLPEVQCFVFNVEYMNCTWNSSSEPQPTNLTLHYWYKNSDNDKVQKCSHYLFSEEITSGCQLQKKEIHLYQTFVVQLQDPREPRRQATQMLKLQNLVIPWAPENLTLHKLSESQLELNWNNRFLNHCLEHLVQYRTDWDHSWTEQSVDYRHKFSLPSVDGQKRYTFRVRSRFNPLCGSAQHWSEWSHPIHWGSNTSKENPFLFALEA
Sequence of IL-2Rα-His (Acrobiosystems) (P01589 22-213): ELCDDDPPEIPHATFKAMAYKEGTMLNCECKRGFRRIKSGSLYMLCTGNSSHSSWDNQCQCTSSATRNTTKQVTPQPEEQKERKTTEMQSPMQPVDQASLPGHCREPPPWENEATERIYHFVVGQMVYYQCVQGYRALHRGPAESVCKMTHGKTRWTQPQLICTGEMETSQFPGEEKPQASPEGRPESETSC

Molecule	EC50 [1] [nM]	EC50 [2] [nM]	Kd [3] [nM]	koff [3] [s⁻¹]	kon [3] [M⁻¹ s⁻¹]	Kd [4] [nM]	koff [4] [s⁻¹]	kon [4] [M⁻¹ s⁻¹]
Fc-IL2 (control antibody; prepared in-house) (Fc fusion)	0.325	7.99	–	–	–	–	–	–
1G1-h70 (antibody, V domains shown, also called humanized anti-PD-1 antibody 1G1-h70; anti-PD-1 antibody) VH: QVQLVQSGAEVKKPGASVKVSCKASGYTFTGYWMHWVRQAPGQGLEWIGMIHPNSDTTTYNEKFKNRVTMTRDTSISTAYMELSRLRSDDTAVYYCAGTDQAAWFAFWGQGTTVTVSS VL: DIVMTQTPLSLSVTPGQPASISCRSSQNIVHSQGDTYLEWYLQKPGQSPQLLIYKVSKRFSGVPDRFSGSGSGTDFTLKISRVEAEDVGVYYCFQGSHVPWTFGGGTKVEIK	–	–	0.237	3.51e-05	148000	0.0481	1.38e-05	286000
